# In patent US20250002593A1 (INMAGENE PTE, published 2025):
# T1: recombinant hIL-36R-his (human, UniProt Q9HB29 20-337)
# T1 construct: Residues 1-337 (extracellular domain) are stated for the IL-36R-his used as immunogen; The range includes the signal peptide; no cleavage site is stated; also called recombinant hIL36R protein; recombinant human IL-36R-his protein; not shown: His tag
# T1 sequence: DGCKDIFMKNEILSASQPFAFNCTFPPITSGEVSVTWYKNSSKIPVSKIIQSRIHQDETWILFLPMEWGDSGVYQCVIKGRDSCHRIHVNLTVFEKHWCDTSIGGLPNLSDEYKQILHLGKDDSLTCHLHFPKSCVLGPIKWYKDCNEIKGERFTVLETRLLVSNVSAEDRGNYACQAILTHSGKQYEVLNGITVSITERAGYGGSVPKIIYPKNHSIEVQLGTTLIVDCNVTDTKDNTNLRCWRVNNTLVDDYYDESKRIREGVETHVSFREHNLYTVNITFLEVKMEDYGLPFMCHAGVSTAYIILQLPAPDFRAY
# T2: membrane hIL-36R (human, UniProt Q9HB29 20-575)
# T2 sequence: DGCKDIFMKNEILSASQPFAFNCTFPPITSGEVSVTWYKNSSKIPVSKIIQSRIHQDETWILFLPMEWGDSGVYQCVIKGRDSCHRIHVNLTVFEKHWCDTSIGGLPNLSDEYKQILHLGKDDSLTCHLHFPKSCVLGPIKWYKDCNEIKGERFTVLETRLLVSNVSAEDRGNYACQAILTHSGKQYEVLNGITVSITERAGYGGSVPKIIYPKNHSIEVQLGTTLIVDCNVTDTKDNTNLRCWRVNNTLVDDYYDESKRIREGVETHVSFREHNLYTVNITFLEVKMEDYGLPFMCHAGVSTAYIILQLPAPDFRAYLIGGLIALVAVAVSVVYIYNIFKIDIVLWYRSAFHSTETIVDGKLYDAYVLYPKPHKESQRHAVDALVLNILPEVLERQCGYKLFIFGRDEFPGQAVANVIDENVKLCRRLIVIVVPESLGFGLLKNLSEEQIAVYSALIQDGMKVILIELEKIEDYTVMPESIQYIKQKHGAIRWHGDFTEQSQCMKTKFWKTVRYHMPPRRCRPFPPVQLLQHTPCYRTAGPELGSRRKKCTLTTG
# T3: membrane mouse IL-36R (mouse, UniProt Q9ERS7 22-574)
# T3 construct: whole, on cells; also called mouse IL-36R on HEK293 cells transfected with pcDNA3.1-musIL36R
# T3 sequence (looked up): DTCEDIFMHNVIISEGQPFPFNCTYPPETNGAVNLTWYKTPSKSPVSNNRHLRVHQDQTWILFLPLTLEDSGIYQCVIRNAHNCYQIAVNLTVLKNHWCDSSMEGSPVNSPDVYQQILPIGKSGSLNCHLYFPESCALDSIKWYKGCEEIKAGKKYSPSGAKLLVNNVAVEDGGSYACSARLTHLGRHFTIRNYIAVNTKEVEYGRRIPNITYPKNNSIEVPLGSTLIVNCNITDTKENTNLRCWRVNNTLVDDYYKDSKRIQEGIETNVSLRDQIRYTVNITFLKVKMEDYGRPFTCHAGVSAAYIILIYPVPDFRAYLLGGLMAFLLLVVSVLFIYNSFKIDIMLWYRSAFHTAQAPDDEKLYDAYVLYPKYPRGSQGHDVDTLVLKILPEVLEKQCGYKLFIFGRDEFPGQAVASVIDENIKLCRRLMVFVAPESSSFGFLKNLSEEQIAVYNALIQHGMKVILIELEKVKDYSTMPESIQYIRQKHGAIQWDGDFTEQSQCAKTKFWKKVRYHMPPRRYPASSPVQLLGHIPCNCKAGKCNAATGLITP
# T4: Recombinant hIL1R1 protein (human, UniProt P14778 18-332, limits assumed)
# T4 sequence (looked up): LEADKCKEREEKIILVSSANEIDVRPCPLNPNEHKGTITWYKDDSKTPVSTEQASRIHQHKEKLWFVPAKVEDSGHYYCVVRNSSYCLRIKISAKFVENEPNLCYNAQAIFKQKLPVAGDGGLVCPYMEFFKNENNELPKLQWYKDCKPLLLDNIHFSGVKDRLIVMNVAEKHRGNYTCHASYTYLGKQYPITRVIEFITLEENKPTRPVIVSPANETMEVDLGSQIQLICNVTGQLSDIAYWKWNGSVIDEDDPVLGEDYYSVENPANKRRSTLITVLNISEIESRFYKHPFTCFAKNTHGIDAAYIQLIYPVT
# T5: Recombinant hIL-36R protein (Acrobio, Cat #IL2-H52H6) (human, UniProt Q9HB29 20-335)
# T5 construct: Bought soluble protein; also called recombinant human IL-36R protein
# T5 sequence: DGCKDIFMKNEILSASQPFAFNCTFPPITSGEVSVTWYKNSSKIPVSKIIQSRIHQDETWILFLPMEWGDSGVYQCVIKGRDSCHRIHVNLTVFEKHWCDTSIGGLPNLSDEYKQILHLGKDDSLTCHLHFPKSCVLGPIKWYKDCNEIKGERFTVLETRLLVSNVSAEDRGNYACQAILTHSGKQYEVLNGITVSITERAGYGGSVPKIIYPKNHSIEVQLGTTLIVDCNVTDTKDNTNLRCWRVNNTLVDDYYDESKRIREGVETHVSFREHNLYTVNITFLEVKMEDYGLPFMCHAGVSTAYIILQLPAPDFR
# B1: 5F7-2a8 (antibody, human IgG4 S228P, kappa)
# heavy: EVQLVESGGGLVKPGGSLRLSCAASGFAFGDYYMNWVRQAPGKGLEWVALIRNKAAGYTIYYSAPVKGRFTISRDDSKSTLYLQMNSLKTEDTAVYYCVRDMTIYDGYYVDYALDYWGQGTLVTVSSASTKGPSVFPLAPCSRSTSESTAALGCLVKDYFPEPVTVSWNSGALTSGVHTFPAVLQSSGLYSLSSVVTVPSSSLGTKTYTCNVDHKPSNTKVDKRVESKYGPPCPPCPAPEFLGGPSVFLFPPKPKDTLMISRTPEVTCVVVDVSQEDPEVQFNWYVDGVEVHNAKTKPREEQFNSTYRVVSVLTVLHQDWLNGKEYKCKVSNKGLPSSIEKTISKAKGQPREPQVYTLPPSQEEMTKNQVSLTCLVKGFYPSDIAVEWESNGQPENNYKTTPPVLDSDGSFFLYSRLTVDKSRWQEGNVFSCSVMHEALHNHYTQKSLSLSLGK
# light: DIVMTQSPSSVSASVGDRVTITCRASRNINIWLSWYQQKPGKAPKLFIYKASNLHTGVPSRFSGSGSGTDFTLTISSLQPEDFATYYCLQSQSYPLTFGQGTKLEIKRTVAAPSVFIFPPSDEQLKSGTASVVCLLNNFYPREAKVQWKVDNALQSGNSQESVTEQDSKDSTYSLSSTLTLSKADYEKHKVYACEVTHQGLSSPVTKSFNRGEC
# notes: also called 5F7-2a8-WT; 5F7-WT
# Key:
# recombinant hIL-36R-his = target: T1, recombinant hIL-36R-his; assay: ELISA on coated recombinant hIL-36R-his, HRP anti-hIgG
# Experimental: Recombinant hIL36R protein was coated at a concentration of 1 μg/ml 100 ul per well in ELISA plate overnight. After wash, the plate was blocked with PBS containing 1% BSA+1% normal goat serum+0.05% Tween20. After that, 100 ul serially diluted antibodies were added into the plate and incubated for 1 h. The specific binding to hIL36R of antibodies was detected by HRP linked anti-hIgG antibody.
# membrane hIL-36R [1] = target: T2, membrane hIL-36R; assay: cell-based or functional assay
# membrane hIL-36R [2] = target: T2, membrane hIL-36R; assay: cell-based or functional assay; remark: listed apart in the source
# membrane mouse IL-36R = target: T3, membrane mouse IL-36R; assay: flow cytometry on HEK293 cells transfected with mouse IL-36R
# Experimental: (§1) After 48 h, the transfected cells were subjected to FACS analysis for anti-IL-36R antibodies binding. Cells were collected and seeded into 96 well plate at a concentration of 100000 cells/50 ul/well. 50 ul serially diluted antibodies were added to the cells and incubate at 4° C. for 1 h. After that, cells were washed twice with PBS and 100 ul diluted secondary antibody (FITC labeled anti-hIgG) was added into the cells and incubated at 4° C. for 30 min. After incubation, cells were washed twice with PBS and analyzed by flow cytometry.
# [3] = target: T4, Recombinant hIL1R1 protein; assay: ELISA on coated hIL1R1
# Experimental: Then the plate was blocked with PBS containing 1% BSA+1% normal goat serum+0.05% Tween20. After that, 100 ul serially diluted antibodies were added into the plate and incubated for 1 h. The specific binding to hIL1R1 of antibodies was detected with HRP linked anti hIgG antibody.
# [4] = target: T6, recombinant hFcRn-his/B2M heterodimer protein (Acrobio, Cat #FCM-H82W4) (human, UniProt P55899 24-297; P61769 21-119); assay: BLI (Gator) at pH 6.0, hFcRn-his/B2M on anti-his sensor, antibody analyte
# T6 construct: Bought heterodimer
# T6 sequence (P55899 24-297 limits assumed, chain 1 of 2): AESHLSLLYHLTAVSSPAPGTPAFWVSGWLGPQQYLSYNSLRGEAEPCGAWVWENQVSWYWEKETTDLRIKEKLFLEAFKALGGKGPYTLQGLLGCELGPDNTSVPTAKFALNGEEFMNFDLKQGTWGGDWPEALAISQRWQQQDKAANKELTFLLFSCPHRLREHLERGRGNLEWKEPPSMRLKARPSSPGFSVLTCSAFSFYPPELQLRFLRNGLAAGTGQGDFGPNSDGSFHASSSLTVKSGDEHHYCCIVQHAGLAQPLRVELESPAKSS
# T6 sequence (P61769 21-119 limits assumed, chain 2 of 2): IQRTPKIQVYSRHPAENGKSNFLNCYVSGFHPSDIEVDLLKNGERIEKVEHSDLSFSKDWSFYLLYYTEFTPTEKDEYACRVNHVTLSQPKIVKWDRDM
# Experimental: The binding affinity of antibodies to hFcRn was evaluated with Gator Bio-analysis system. Briefly, recombinant hFcRn-his/B2M heterodimer protein (Acrobio, Cat #FCM-H82W4) was loaded to anti-his sensor, serially diluted antibodies were used as analyte. Association and dissociation were performed in pH6.0 KD buffer.
# [5] = target: T5, Recombinant hIL-36R protein (Acrobio, …); assay: BLI (Gator)
# Experimental: Antibodies was immobilized onto Protein A biosensor after balance. A baseline was detected for 60 seconds. And then antibody-antigen association was detected for 180 seconds to get the Kon factor data. Followed by dissociation in kinetic buffer for 180 seconds to get the Koff factor data. The regeneration of biosensors was in buffer 10 mM glycine, pH2.0. All the kinetics data were collected at 30° C. Data were acquired with Gator Bioanalysis System.
# membrane hIL-36R [6] = target: T2, membrane hIL-36R; assay: flow cytometry on HEK293 cells transfected with hIL-36R, FITC anti-hIgG
# Experimental: as §1
# [7] = target: T5, Recombinant hIL-36R protein (Acrobio, …); assay: SPR (Biacore T200, 25 C), antibody captured by Fc, hIL-36R analyte
# Experimental: To evaluate binding affinity of antibodies to hIL-36R, the binding affinity of antibodies were tested by surface plasmon resonance (SPR) technology with Biacore T200. The assay was performed at 25° C. and the running buffer was HBS-EP+. Diluted antibodies were captured on the sensor chip through Fc capture method.
binder,measurement,setting,value
B1,EC50,recombinant hIL-36R-his,0.00947 µg/mL
same,"IC50, IL-36R reporter assay: inhibition of ligand induced luminescence in Jurkat-IL36R-IL1Racp-NFkB-luc cells",membrane hIL-36R [1],0.0237 µg/mL
same,"IC50, IL-36α induced IL-6 release in HEK cells",membrane hIL-36R [2],0.11 µg/mL
same,"IC50, IL-36α induced IL-8 release in A431 cells",membrane hIL-36R [2],0.195 µg/mL
same,"IC50, IL-36α induced IL-8 release in HDF cells",membrane hIL-36R [2],0.00696 µg/mL
same,"IC50, IL-36α induced IL-8 release in HEK cells",membrane hIL-36R [2],0.129 µg/mL
same,"IC50, IL-36α induced TNF-a release in HEK cells",membrane hIL-36R [2],0.0535 µg/mL
same,"IC50, IL-36β induced IL-6 release in HEK cells",membrane hIL-36R [2],0.0188 µg/mL
same,"IC50, IL-36β induced IL-8 release in A431 cells",membrane hIL-36R [2],0.111 µg/mL
same,"IC50, IL-36β induced IL-8 release in HEK cells",membrane hIL-36R [2],0.0481 µg/mL
same,"IC50, IL-36β induced TNF-a release in HEK cells",membrane hIL-36R [2],0.0235 µg/mL
same,"IC50, IL-36γ induced IL-6 release in HEK cells",membrane hIL-36R [2],0.0446 µg/mL
same,"IC50, IL-36γ induced IL-8 release in A431 cells",membrane hIL-36R [2],0.00877 µg/mL
same,"IC50, IL-36γ induced IL-8 release in HEK cells",membrane hIL-36R [2],0.0326 µg/mL
same,"IC50, IL-36γ induced TNF-a release in HEK cells",membrane hIL-36R [2],0.00526 µg/mL
same,binding result,membrane mouse IL-36R,no binding
same,binding result,[3],no binding
same,Kd,[4],168 nM
same,koff,[4],0.0507 s⁻¹
same,kon,[4],301000 M⁻¹ s⁻¹
same,Kd,[5],< 0.1 nM
same,kon,[5],47100 M⁻¹ s⁻¹
same,EC50,membrane hIL-36R [6],0.146 µg/mL
same,Kd,[7],1.52 nM
same,koff,[7],4.48e-05 s⁻¹
same,kon,[7],29500 M⁻¹ s⁻¹
